Tested on: Escherichia coli TOP10
Assay: shrunken log2 fold change of peptide-encoding DNA abundance (4.5 h post-induction vs induction); higher = less antimicrobial activity (less host growth inhibition)
Conditions: time post-induction: 4.5 h; library: site-saturation at positions 5, 18, 19, 20
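Note: peptides expressed intracellularly from a pBAD plasmid library in pooled LB shake-flask culture, induced with 0.3% L-arabinose, DNA abundance read by NGS, three biological replicates, DESeq2 with apeglm shrinkage.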

Sequence	shrunken log2 fold change
RRIRIRPPRLPRPRPRPLPSPRP	-0.0327
RRIRFRPPRLPRPRPRPNLLPRP	-0.187
RRIRTRPPRLPRPRPRPSSPPRP	-0.312
RRIRRRPPRLPRPRPRPFDIPRP	-0.0362
RRIRNRPPRLPRPRPRPYTCPRP	-0.0637
RRIRERPPRLPRPRPRPLRRPRP	0.303
RRIRLRPPRLPRPRPRPAKEPRP	-0.049
RRIRMRPPRLPRPRPRPGEAPRP	2.18
RRIRDRPPRLPRPRPRPCQLPRP	-0.0273
RRIRGRPPRLPRPRPRPKWMPRP	0.58
RRIRIRPPRLPRPRPRPMTKPRP	0.0447
RRIRDRPPRLPRPRPRPEFDPRP	0.375
RRIRMRPPRLPRPRPRPAHPPRP	0.296
RRIRIRPPRLPRPRPRPHKIPRP	-0.462
RRIRIRPPRLPRPRPRPPGGPRP	0.512
RRIRMRPPRLPRPRPRPLTLPRP	-0.1
RRIRQRPPRLPRPRPRPDAAPRP	1.08
RRIRERPPRLPRPRPRPDCEPRP	-0.0494
RRIRCRPPRLPRPRPRPRDQPRP	0.278
RRIRCRPPRLPRPRPRPIGMPRP	-0.121
RRIRPRPPRLPRPRPRPCYGPRP	0.0701
RRIRWRPPRLPRPRPRPTQGPRP	0.533
RRIRFRPPRLPRPRPRPGATPRP	0.357
RRIRLRPPRLPRPRPRPAFFPRP	0.406
RRIRNRPPRLPRPRPRPKACPRP	-0.00921

Sequence	shrunken log2 fold change
RRIRPRPPRLPRPRPRPQQGPRP	0.14
RRIRHRPPRLPRPRPRPNIPPRP	-0.234
RRIRWRPPRLPRPRPRPRHSPRP	0.286
RRIRERPPRLPRPRPRPNHMPRP	-0.31
RRIRWRPPRLPRPRPRPHSYPRP	-0.0789
RRIRMRPPRLPRPRPRPYWSPRP	-0.186
RRIRGRPPRLPRPRPRPERLPRP	0.586
RRIRLRPPRLPRPRPRPLTPPRP	0.62
RRIRERPPRLPRPRPRPCRHPRP	-0.00171
RRIRYRPPRLPRPRPRPKEHPRP	-0.366
RRIRERPPRLPRPRPRPAIHPRP	0.125
RRIRQRPPRLPRPRPRPIGKPRP	0.0819
RRIRGRPPRLPRPRPRPPKKPRP	1.03
RRIRLRPPRLPRPRPRPNPNPRP	0.395
RRIRSRPPRLPRPRPRPCGAPRP	0.327
RRIRYRPPRLPRPRPRPMDKPRP	-0.432
RRIRARPPRLPRPRPRPSTSPRP	-0.322
RRIRARPPRLPRPRPRPICQPRP	0.216
RRIRKRPPRLPRPRPRPHMWPRP	-0.174
RRIRSRPPRLPRPRPRPNIAPRP	0.0275
RRIRRRPPRLPRPRPRPCRLPRP	0.144
RRIRTRPPRLPRPRPRPSDRPRP	-0.138
RRIRMRPPRLPRPRPRPSYYPRP	-0.531
RRIRHRPPRLPRPRPRPSWKPRP	-0.0518
RRIRDRPPRLPRPRPRPMRNPRP	0.416

Sequence	shrunken log2 fold change
RRIRRRPPRLPRPRPRPIEPPRP	-0.015
RRIRCRPPRLPRPRPRPIVYPRP	-0.788
RRIRGRPPRLPRPRPRPIAHPRP	0.334
RRIRMRPPRLPRPRPRPLQVPRP	0.21
RRIRNRPPRLPRPRPRPNCDPRP	-0.237
RRIRKRPPRLPRPRPRPVYTPRP	-0.356
RRIRIRPPRLPRPRPRPGISPRP	-0.27
RRIRNRPPRLPRPRPRPRMKPRP	-0.0273
RRIRARPPRLPRPRPRPCADPRP	0.734
RRIRGRPPRLPRPRPRPFITPRP	0.0604
RRIRGRPPRLPRPRPRPNLFPRP	0.129
RRIRHRPPRLPRPRPRPRCGPRP	0.202
RRIRHRPPRLPRPRPRPKGWPRP	0.103
RRIRSRPPRLPRPRPRPWRMPRP	-0.181
RRIRIRPPRLPRPRPRPRGNPRP	-0.0419
RRIRSRPPRLPRPRPRPGDSPRP	-0.0926
RRIRWRPPRLPRPRPRPWVYPRP	-0.384
RRIRCRPPRLPRPRPRPGERPRP	0.01
RRIRTRPPRLPRPRPRPFAQPRP	-0.178
RRIRKRPPRLPRPRPRPYDWPRP	-0.0468
RRIRPRPPRLPRPRPRPHENPRP	-0.0875
RRIRFRPPRLPRPRPRPIEDPRP	-0.461
RRIRVRPPRLPRPRPRPSEMPRP	0.0713
RRIRKRPPRLPRPRPRPSAMPRP	0.664
RRIRFRPPRLPRPRPRPRWPPRP	0.327

Sequence	shrunken log2 fold change
RRIRGRPPRLPRPRPRPSGQPRP	0.538
RRIRNRPPRLPRPRPRPVDLPRP	-0.21
RRIRCRPPRLPRPRPRPPFLPRP	-0.0759
RRIRKRPPRLPRPRPRPNCLPRP	-0.0339
RRIRIRPPRLPRPRPRPYDMPRP	-0.19
RRIRCRPPRLPRPRPRPMMIPRP	-0.044
RRIRKRPPRLPRPRPRPIGHPRP	0.0336
RRIRRRPPRLPRPRPRPCRQPRP	0.0284
RRIRHRPPRLPRPRPRPMTNPRP	-0.19
RRIRLRPPRLPRPRPRPMYGPRP	-0.179
RRIRLRPPRLPRPRPRPNFHPRP	-0.301
RRIRTRPPRLPRPRPRPCACPRP	0.0169
RRIRYRPPRLPRPRPRPAGRPRP	0.104
RRIRHRPPRLPRPRPRPMTVPRP	0.055
RRIRQRPPRLPRPRPRPEKAPRP	-0.00536
RRIRFRPPRLPRPRPRPGIPPRP	-0.183
RRIRPRPPRLPRPRPRPERHPRP	0.00192
RRIRQRPPRLPRPRPRPFTQPRP	-0.0608
RRIRVRPPRLPRPRPRPIISPRP	-0.418
RRIRARPPRLPRPRPRPYAQPRP	-0.181
RRIRRRPPRLPRPRPRPFYYPRP	-0.204
RRIRSRPPRLPRPRPRPYTWPRP	-0.989
RRIRQRPPRLPRPRPRPEWHPRP	0.33
RRIRARPPRLPRPRPRPKSWPRP	0.89
RRIRYRPPRLPRPRPRPRDDPRP	-0.241

Sequence	shrunken log2 fold change
RRIRQRPPRLPRPRPRPPYWPRP	0.0656
RRIRGRPPRLPRPRPRPPHFPRP	0.67
RRIRFRPPRLPRPRPRPWTFPRP	-0.797
RRIRGRPPRLPRPRPRPCSDPRP	0.0118
RRIRDRPPRLPRPRPRPSSCPRP	0.00339
RRIRQRPPRLPRPRPRPCCYPRP	-0.0451
RRIRFRPPRLPRPRPRPMILPRP	-0.29
RRIRLRPPRLPRPRPRPAQGPRP	0.376
RRIRMRPPRLPRPRPRPWFSPRP	-0.0415
RRIRVRPPRLPRPRPRPDAEPRP	0.431
RRIRYRPPRLPRPRPRPLQTPRP	0.0147
RRIRSRPPRLPRPRPRPTCIPRP	0.0869
RRIRQRPPRLPRPRPRPNQLPRP	-0.499
RRIRIRPPRLPRPRPRPPHQPRP	0.000816
RRIRVRPPRLPRPRPRPDMPPRP	-0.264
RRIRFRPPRLPRPRPRPRRIPRP	-0.116
RRIRIRPPRLPRPRPRPTFNPRP	-0.595
RRIRMRPPRLPRPRPRPPEHPRP	0.353
RRIRPRPPRLPRPRPRPITRPRP	0.31
RRIRIRPPRLPRPRPRPWARPRP	0.0419
RRIRARPPRLPRPRPRPGLAPRP	1
RRIRWRPPRLPRPRPRPQIEPRP	0.0601
RRIRGRPPRLPRPRPRPVQFPRP	0.535
RRIRRRPPRLPRPRPRPMDVPRP	0.0427
RRIRIRPPRLPRPRPRPHFDPRP	-0.149

Sequence	shrunken log2 fold change
RRIRGRPPRLPRPRPRPVPPPRP	1.17
RRIRVRPPRLPRPRPRPMTSPRP	-0.128
RRIRFRPPRLPRPRPRPGIVPRP	-0.0228
RRIRKRPPRLPRPRPRPGYKPRP	0.236
RRIRKRPPRLPRPRPRPRGAPRP	0.891
RRIRLRPPRLPRPRPRPTCWPRP	0.393
RRIRYRPPRLPRPRPRPSYDPRP	-0.442
RRIRDRPPRLPRPRPRPSDLPRP	0.0645
RRIRYRPPRLPRPRPRPMLIPRP	-0.767
RRIRIRPPRLPRPRPRPNLDPRP	-0.564
RRIRDRPPRLPRPRPRPWCAPRP	-0.0367
RRIRNRPPRLPRPRPRPETMPRP	-0.0713
RRIRYRPPRLPRPRPRPYAAPRP	-0.546
RRIRSRPPRLPRPRPRPESHPRP	-0.44
RRIRNRPPRLPRPRPRPHPQPRP	-0.106
RRIRCRPPRLPRPRPRPTMGPRP	-0.136
RRIRNRPPRLPRPRPRPVFEPRP	0.07
RRIRNRPPRLPRPRPRPLGGPRP	0.105
RRIRLRPPRLPRPRPRPCWAPRP	-0.0392
RRIRPRPPRLPRPRPRPGQPPRP	-0.0656
RRIRWRPPRLPRPRPRPKLFPRP	0.589
RRIRMRPPRLPRPRPRPFVNPRP	1.6
RRIRYRPPRLPRPRPRPFNNPRP	2.81
RRIRTRPPRLPRPRPRPYTNPRP	-0.0771
RRIRYRPPRLPRPRPRPNFYPRP	-0.689
